In patent publication US10556944B2, “Fab region-binding peptide” (priority 2013, dated 2020):
Where no end group is shown, it is not given here.

Target: T1, anti-TNFα antibody-Fab (IgG-Fab derived from anti-TNFα monoclonal antibody, adalimumab) (Homo sapiens, UniProt P01834+P01857)
T1 construct: cleaving a humanized monoclonal IgG formulation as a starting material into a Fab fragment and an Fc fragment by papain; purchased
Experiment: Biacore 3000 surface plasmon resonance, affinity of SpG-β1 mutants for immobilized IgG-Fab
Assay type: binding
Details: for affinity / binding ability for the IgG-Fab compared with the wild-type (in words): Tables 1 and 3, FIGS. 2 and 3

[1] = Table 2, Example 3, GST-fused one-domain peptide
[2] = Table 2, Example 3, GST-fused one-domain peptide, 25° C., pH 7.4
[3] = Table 2, Example 3, fold of wild-type KA, GST-fused one-domain peptide
[4] = Table 3, Example 4, GST-cleaved type (Pep-), constructs Pep.1d, Pep.1dC, Pep.2dC
[5] = Table 3, Example 4, fold of wild-type KA of the same construct type

Substance | KA [1] | koff [2] | kon [2] | KA Vs. Wild [3] | affinity constant (KA), order of magnitude (Example 4, GST-cleaved one domain type) | KA [4] | koff [4] | kon [4] | KA Vs. Wild [5] | KA Vs. Wild (Table 3, Example 4, fold of wild-type KA of the same construct type, listed as Pep-SpGβ1-K10R/K13T/T18A/E19I/V21D/T25M/F30L/Y33F/N35F/D47A.1d) | affinity / binding ability for the IgG-Fab compared with the wild-type (in words) | KA Vs. Wild (Table 3, Example 4, fold of wild-type KA of the same construct type, listed as Pep-SpGβ1-K13T/E19I/V21D/T25M/F30L/Y33F/N35F/D47A.1d)
K13T/E19I/Y33F/N35Y/V39L: GST-fused one-domain SpG-β1 mutant, amino acid SEQ ID NO: 41 (TTYKLILNGKTLTGETTTIAVDAATAEKVFKQFAYDNGLDGEWTYDDATKTFTVTE; also: GST-fused) | 1.87e+06 M⁻¹ | 0.0049 s⁻¹ | 90500 s/M | 5.0 |  |  |  |  |  |  |  | 
K13T/T18A/E19V/F30L/Y33F: GST-fused one-domain SpG-β1 mutant, amino acid SEQ ID NO: 67 (TTYKLILNGKTLTGETTAVAVDAATAEKVLKQFANDNGVDGEWTYDDATKTFTVTE; also: GST-fused) | 2.85e+06 M⁻¹ | 0.0033 s⁻¹ | 93600 s/M | 7.6 |  |  |  |  |  |  |  | 
K13T/V21A/F30L/Y33F/D40E: GST-fused one-domain SpG-β1 mutant, amino acid SEQ ID NO: 51 (TTYKLILNGKTLTGETTTEAADAATAEKVLKQFANDNGVEGEWTYDDATKTFTVTE; also: GST-fused) | 1.78e+06 M⁻¹ | 0.0078 s⁻¹ | 139000 s/M | 4.8 |  |  |  |  |  |  |  | 
K13T/V21I/A23T/F30L/E42L: GST-fused one-domain SpG-β1 mutant, amino acid SEQ ID NO: 25 (TTYKLILNGKTLTGETTTEAIDTATAEKVLKQYANDNGVDGLWTYDDATKTFTVTE; also: GST-fused) | 1.44e+06 M⁻¹ |  | 85000 s/M | 3.9 |  |  |  |  |  |  |  | 
Pep.1d K10R/K13T/T18A/E19I/V21D/T25M/F30L/Y33F/N35F/D47A: SpG-β1 mutant, SEQ ID NO: 87, GST-cleaved one domain type (TTYKLILNGRTLTGETTAIADDAAMAEKVLKQFAFDNGVDGEWTYDAATKTFTVTE; SpG mutant) |  |  |  |  | ~10^7 M^−1 | 1.19e+07 M⁻¹ | 0.0117 s⁻¹ | 138000 s/M | 83 | ≥ 80 | significantly higher affinity for the IgG-Fab than Pep-SpGβ1-Wild.1d | 
Pep.1d K13T/E19I/V21D/T25M/F30L/Y33F/N35F/D47A (TTYKLILNGKTLTGETTTIADDAAMAEKVLKQFAFDNGVDGEWTYDAATKTFTVTE) |  |  |  |  |  | 4.24e+06 M⁻¹ | 0.0257 s⁻¹ | 109000 s/M | 29 |  | significantly higher affinity for the IgG-Fab than Pep-SpGβ1-Wild.1d | ~30
Pep.1d K13T/T18A/E19I/V21A/K28I/F30L/Y33F/V39I: SpG-β1 mutant, SEQ ID NO: 85, GST-cleaved one domain type (TTYKLILNGKTLTGETTAIAADAATAEIVLKQFANDNGIDGEWTYDDATKTFTVTE; SpG mutant) |  |  |  |  |  | 5.34e+06 M⁻¹ | 0.0207 s⁻¹ | 111000 s/M | 37 |  | significantly higher affinity for the IgG-Fab than Pep-SpGβ1-Wild.1d | 
Pep.1dC K10R/K13T/T18A/E19I/V21D/T25M/F30L/Y33F/N35F/D47A (TTYKLILNGRTLTGETTAIADDAAMAEKVLKQFAFDNGVDGEWTYDAATKTFTVTE) |  |  |  |  |  | 1.56e+07 M⁻¹ | 0.0062 s⁻¹ | 97700 s/M | 88 |  |  | 
Pep.1dC K13T/E19I/V21D/T25M/F30L/Y33F/N35F/D47A (TTYKLILNGKTLTGETTTIADDAAMAEKVLKQFAFDNGVDGEWTYDAATKTFTVTE) |  |  |  |  |  | 5.47e+06 M⁻¹ | 0.0137 s⁻¹ | 74700 s/M | 31 |  |  | 
